The record followed here is PMC11142733, “IgG hexamers initiate complement-dependent acute lung injury” (The Journal of Clinical Investigation, 2024).

Like-named read-outs stand apart in the source and are kept apart here.

Test [1] addresses RGY-mutated 34-1-2S (RGY-hIgG1-34-1-2S) (mouse | human). Put plainly: negative stain electron microscopy; antibody samples diluted to 0.01 mg/mL in 25 mM HEPES and 100 mM NaCl, on carbon-coated grids, stained with 0.75% uranyl formate; monomer to hexamer in solution.
Test [2] addresses T1, D^d MHC class I monomer presenting IGPGRAFYA (mouse | ).
T1 chain 1: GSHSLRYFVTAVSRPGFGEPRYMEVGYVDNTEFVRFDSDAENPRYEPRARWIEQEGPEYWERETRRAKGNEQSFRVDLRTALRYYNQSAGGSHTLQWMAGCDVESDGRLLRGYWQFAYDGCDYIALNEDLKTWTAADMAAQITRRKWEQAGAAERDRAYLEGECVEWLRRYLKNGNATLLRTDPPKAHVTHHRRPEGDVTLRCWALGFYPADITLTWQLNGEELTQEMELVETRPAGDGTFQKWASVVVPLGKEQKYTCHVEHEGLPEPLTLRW
T1 chain 2: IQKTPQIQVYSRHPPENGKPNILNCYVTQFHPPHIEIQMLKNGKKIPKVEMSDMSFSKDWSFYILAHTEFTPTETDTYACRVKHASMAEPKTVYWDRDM
T1 chain 3: IGPGRAFYA
Put plainly: SPR.

For test [3], the target named is T2, K^d MHC class I monomer presenting VYLKTNVFL (mouse | ).
T2 chain 1: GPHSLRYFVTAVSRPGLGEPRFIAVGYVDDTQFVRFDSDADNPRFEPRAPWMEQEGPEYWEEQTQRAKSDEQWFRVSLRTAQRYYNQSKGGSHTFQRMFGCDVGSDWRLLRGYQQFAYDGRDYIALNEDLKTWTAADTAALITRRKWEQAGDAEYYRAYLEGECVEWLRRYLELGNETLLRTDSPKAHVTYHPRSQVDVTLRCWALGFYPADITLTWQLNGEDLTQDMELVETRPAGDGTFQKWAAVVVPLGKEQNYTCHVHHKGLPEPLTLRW
T2 chain 2: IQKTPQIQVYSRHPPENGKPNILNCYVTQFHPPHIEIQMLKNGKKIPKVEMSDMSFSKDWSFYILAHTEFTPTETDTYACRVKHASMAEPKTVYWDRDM
T2 chain 3: VYLKTNVFL
The experiment in a line: SPR.

In test [4] the target is T3, K^b MHC class I monomer presenting SIINFEKL (mouse | ).
T3 chain 1: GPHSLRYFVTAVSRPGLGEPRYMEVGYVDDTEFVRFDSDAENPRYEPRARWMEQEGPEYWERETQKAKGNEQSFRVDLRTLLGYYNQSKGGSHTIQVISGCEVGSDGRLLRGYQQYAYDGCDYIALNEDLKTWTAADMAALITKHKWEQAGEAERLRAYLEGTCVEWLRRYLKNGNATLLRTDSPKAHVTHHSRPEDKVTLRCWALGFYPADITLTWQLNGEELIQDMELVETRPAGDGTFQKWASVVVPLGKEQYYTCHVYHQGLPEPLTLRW
T3 chain 2: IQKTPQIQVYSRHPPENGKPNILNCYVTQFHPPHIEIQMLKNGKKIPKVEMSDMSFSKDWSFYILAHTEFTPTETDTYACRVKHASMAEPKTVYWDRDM
T3 chain 3: SIINFEKL
Put plainly: SPR. A general note: SPR reads the build-up and loss of mass on a sensor chip optically.

Test [5] has as its target T4, K^b MHC class I monomer presenting SIINFEKL (Mus musculus, H-2b haplotype (H-2Kb), UniProt P01901;P01887).
T4 construct: mouse MHC class I heavy chain H-2K^b of the bought monomer; beta-2-microglobulin of the bought monomer; presented peptide; Soluble monomer from a supplier; also called K^b MHC class I antigen from H2^b mice; copies: + +
The experiment in a line: SPR; mAbs bound via amine coupling to SensEye G Easy2Spot sensors; serial dilutions (0.5–200 nM) of MHC class I monomers injected; in triplicate; IBIS MX96 SPR imager. The settings on record: both partners purified.

Test [6] has as its target T5, D^b MHC class I monomer presenting … (Mus musculus, H-2b haplotype (H-2Db), UniProt P01899;P01887).
T5 construct: mouse MHC class I heavy chain H-2D^b of the bought monomer; beta-2-microglobulin of the bought monomer; presented peptide; Soluble monomer from a supplier; copies: + +
The test is described as above. Particulars: both partners purified.

For test [7], the target named is T6, K^d MHC class I monomer presenting … (Mus musculus, H-2d haplotype (H-2Kd), UniProt P01902;P01887).
T6 construct: mouse MHC class I heavy chain H-2K^d of the bought monomer; beta-2-microglobulin of the bought monomer; presented peptide; Soluble monomer from a supplier
The test is described as above. The settings on record: both partners purified.

The target in test [8] is T6, K^d MHC class I monomer presenting ….

B1: RGY-mutated 34-1-2S (RGY-hIgG1-34-1-2S) (antibody, V domains shown)
VH: EVQLQQSGAEFVRPGASVKLSCTASGFNLKDDYMFWVKQRPEQGLEWIGWIAPDNGDTEYASKFQGKATITADTSSNTAYVQLSSLTSEDTAVYYCTTWGYYSYVNYWGQGTTLTVSS
VL: DIQMTQSPSSLSASLGERVSLTCRASQDIGSNLNWLQQEPDGTIKRLIYATYSLDSGVPKRFSGSRSGSDYSLTISSLESEDFVDYYCLQYASSPYTFGGGTKLEIK
In test [1], B1 displayed a stoichiometry N of 6.

B2: MHC class I alloantibody 34-1-2S (mouse IgG2a) (antibody, V domains shown)
VH: EVQLQQSGAEFVRPGASVKLSCTASGFNLKDDYMFWVKQRPEQGLEWIGWIAPDNGDTEYASKFQGKATITADTSSNTAYVQLSSLTSEDTAVYYCTTWGYYSYVNYWGQGTTLTVSS
VL: DIQMTQSPSSLSASLGERVSLTCRASQDIGSNLNWLQQEPDGTIKRLIYATYSLDSGVPKRFSGSRSGSDYSLTISSLESEDFVDYYCLQYASSPYTFGGGTKLEIK
notes: heavy-chain variable region of 34-1-2S; mouse IgG2a heavy-chain constant region; light chain variable region of 34-1-2S; light-chain constant region of the mouse antibody; Mouse IgG2a; also called anti-MHC class I clone 34-1-2S; control 34-1-2S; source: bought: Bio X Cell, catalog no; BE0180
On to B2, for which the Kd in test [2] is 0.03 µM; in test [3], 0.0091 µM; in test [4], 2.49 µM. The binding result in test [5] is listed as “binds”; in test [6], “no binding (tested: 0.5–200 nM)”; in test [7], “binds”.

B3: Kd1 (antibody, V domains shown)
VH: EVLLVESGGDLVKPGGSLKLSCAASGFTFRTYAMSWVRQTPEKRLEWVATIGDDGSYTFYPDNVKGRFTISRDNAKNNLYLQMRHLKSEDTAIYFCARDGLFAYWGQGTLVTVSA
VL: DIQMTQSPSSLSASLGGKVTITCKASQDIKKNIAWYQYKPGKGPRLLIHYTSTLQPGISSRFSGSGSGRDYSFSISNLEPEDIATYYCLQYDSLLYTFGGGTKLEIK
Regarding B3, the binding result in test [8] is listed as “binds”.

The term stoichiometry N denotes a count of units in the complex or per binding partner. The Kd is the constant that tells how readily two partners part at equilibrium. A higher Kd goes with lower affinity.
